Assay results as given in the DeepSol protein solubility set.

Assay: soluble on expression in E. coli; label from the status in PepcDB or PDB records

Sequence	soluble on expression in E. coli
MGSDKIHHHHHHMINQINFKTSHGGSREEGYIDFSASVNPYPPEWTDEMFERAKKISTFYPYYEKLEEELSDLIGEPITITAGITEALYLLGVWMRGRKVIIPKHTYGEYERISRMFGGRVIKGPNDPGKLAEFVERNSFVFFCNPNNPDGKFYREKEMKPLLDAIQDTNSILILDEAFIDFVKKPESPEGENIIRLRTFTKSYGLPGVRVGYVIGFVDAFRSVRMPWSIGSTGVAFLEFLLKDNFKHLRKTLPLIWKEKERIEKELKVKSDANFFIMKVREGIIEKLKENGILVRDCKSFGLPGYIRFSVRRREENDKLINILRKTLNT	not soluble
GPLGSSAVTITLKTLQQQTFKIRMEPDETVKVLKEKIEAEKGRDAFPVAGQKLIYAGKILSDDVPIRDYRIDEKNFVVVMVTKTKAGQGTSAPPEASPTAAPESSTSFPPAPTSGMSHPPPAAREDKSPSEESAPTTSPESVSGSVPSSGSSGREEDAASTLVTGSEYETMLTEIMSMGYERERVVAALRASYNNPHRAVEYLLTGIPGSPEPEHGSVQESQVSEQPATEAAGENPLEFLRDQPQFQNMRQVIQQNPALLPALLQQLGQENPQLLQQISRHQEQFIQMLNEPPGELADISDVEGEVGAIGEEAPQMNYIQVTPQEKEAIERLKALGFPESLVIQAYFACEKNENLAANFLLSQNFDDE	soluble
MKPIDRFSYLKNNRVSQDTSSLVQCYLPIIGQEALSLYLYTISFWDNGRKEYLFSSILNHLNFGMDRLIKSLKILSAFNLLTLYQKGDVYQLALHAPLSSQDFLGHPVYRRLLEKKIGDVAVEDLKVESADGEEIPVSLNQVFPELAELGSQEDLGLKKKVANDFDLEHFRQLMARDGLRFADEQSDVLNLFAIAEEKKWTWFETYQLAKSTAVSQVISTKRMREKIAQKPVSSDFSLKEATIIKEAKSKTALQFLAEIKQTRKGTITQTERELLQQMAGLGLLDEVINIILLLTFNKVDSANINEKYAMKVANDYAYQKIHSAEEAVLRIRDRGQKAKTQKQNQTAPEKTNVPKWSNPEYKNETSEETRLELERKKQELLARLEKG	soluble
SGIMNIILQDNVQEIEGVVVTGYQQIKNRVFTGAAASVKLDEIKLNGVSDVSRMLEGRIAGLSIQNVTGSFGAAPRINIRGGASIMGNVQPLWVIDGAVYEDLVSLTLDQLASGDAVTLISSAVAGLNASDIEDIQVLKDASATSIYGARALNGVIVITTRSGKRNA	not soluble
YLDVRQVMYTLVAVFIGSRVIDFVQEGAYAARGALIISKDNDAIASHVMLSMNRGVTVLEGRGGFSKNEQDVLYIVVAKNEIVQLKNIVQAIDPHAFVSVSVVHDVMGEGFTLDENKNPIY	not soluble
MTIYDINFAELYQQHLIACNHYNLPPIKWDKKAVKMAENLVGKPSAYNQQLLQAMNVQTDEAVLDIGCGPGTFAVPLAQQGSTVYALDYSNGMLDCLAQFKQKFGLHHLTTFHKSWADNWDDVPQADVVLASRSTLVDDLDDMIEKLCAKAKKRVFLTSVTQRHFLDEGVFEAIGREDIGFPTYIYLLNRLYQKGIQANLNFIETESGCFQGESYEDLLASVEFSLGELSEKEKQGLKAFYDRKQANNEPISHGQKKWALIWWNVDRILEHHHHHH	soluble
MGSDKIHHHHHHMSLSYKEMHQTLMEELRLYHYPVAVKFFFDDEELATFKEKAEFYVPVKPMTFCQWELAARMKGQTVLATREDLGCSNALVSFGWKDIDDNEIKSHMKYVRSIEQAEKFVRSKPRLDMGSVKAIAVGPLGDAIVAPSVVHFYCDNMQSYHLAVDYMAAMDQHPLRTNVTMNSSACGGTVFSFLEKTANMLPACSGSYNAGKTERGEINFMIPGEHIEATVERLLERKRNLGSSAITRPGDGFPGADVCKNCPLIIFKKEK	not soluble
SDFVNNLDTDTSLSILSCLDDPSDIVRASAVSRSWRQFVVKYSLSKNLCLKLFHQLSNVDHIIETSNDRNGESSEAGSSSLMDTRLLEKEHRAFALLARGCMSSPIESCIADAIRASSTDNYPVESILNTLEKRDRIGRTPSYWSSTGQHKTTVPESLLYKLIGDLCLITEVSIHPFQAYFQRGHPIYSSHYVRFRLGHEKDNSPHYNNSQDKKGEPGKSSIESNYVWTYTSQEFSMAQENRLQSFQLPEPVLCIGGYLLVEFLGRVQTQEMDGQYYICVSHVKVEGRSLAKSFRVENVDDNGKFGLKVLSYNDPKKMEEMDAEAGQDMDAEAGQSQLRNLEQLLNLLHRHPLDVVDYVWPDESDDEYAESEDEAEP	soluble
MMEDGNYIINPWVYTDRMGMYRILLEETAMYFAKYGPENEQNLLWGLPLQFGWQYQSGRLADPTGMTDCGNELNESLCVSVDSWWADINYYLSVIPFLAAVDSGITGISPNQITILPPPKDQMRFCYNVSDCQSAVPGTMNRWRDFFQYMQLNSSDFDGLLNYLWEAHASSLDYPTSAFGDRYNFYSEKEANFEENWAIAVNYLAAARLPTTQNRTYSFQRGLPPRVLVDTDIAPFIPDFTPLQNEVLVSLKLLGDTDRNSGSLSLTLWENLMSTKLARTLFLKAFEEFLVTSS	soluble
CIIDKVTAVRRLNVLTLNVHKGFTFFNRRFILPELREAVRATGADLVFLQEVHGSHQQHALRHPAWPETPQYEFLADSMWPQFAYGRNAVYPHGDHGNALLSKFPIRRFNNLDVSVQGNEQRGLLHCQLEVPGHDEVHAVCVHLGLREAHRQRQVKLMLDLLASLPPNAPVIIAGDFNDWRLKADAVLSEHLTEAFGTPARSFPARLPLLRLDRIYLRNAVPGAAQVLSKYPWSHLSDHVPLAAEINL	not soluble
MGSDKIHHHHHHMSETENNELTAGKQSKEPRSNQKLKLLYLAKILLNNTDANHDITLDEILNKLHAYDVTAARKSLYDDIAQLNDFGIKTQKTQYGRTVHYKVIGRAFELAELKLLVDSVAAAKFITEEKSNELIKKLESLTSRQEAATLQRQVYVAGRVKTMNSDIMKNVDAIHNAIANNSSLSFQYCRWNTKKELEVKHDGARYHVSPWGLLWNDGNYYLIGYDHDTQVKDIRHYRVDKMKNILIENKVREGREKLKKLDIASYGKSKFGMYNGEEIKAEILCKNSAIGVLIDRFGTDVTILKKDEAHSRVFVKVADNKLFIHWIMAMGDNFKIIGPENLVKEVHDELNRLAKQYELAD	not soluble
MGSDKIHHHHHHMTAFSFLGDKYHDHDLFLETLKYALNCEINDLRPEDFPEIRKLPDLVVIGRWNLLDDETPWLKEGDIKILVDYVRSGGKLFVWHSGLARFPESYNGLVGGRFIHHPPQKKVRYYGKDIEFELVDEHYFVDLYSDVEIFLWSESDDGTSIAGWRRRYHNGKILALTPAHSEGLKDQVFRDFLKKVLNTFVNQTSW	not soluble
MSLRLEDIQAFLNVVELGSISAAAERMSLSKSVISKRVSDLERHLGVRLLYRSTRNVEPTEAGGFFYKSAKASLQDLNNAAESVALRENDLCGELRVMAPMSFGTLWLGPLVMEFMARNPRLEVVLQLDDRIVDFEKEGYDLAIRITRLQDSSLIARQLGTSRRVVCCSPEYLERHGPLQRIEDILCHPCIGYSHNTPSQLWSFEPRVAGEPARMITPRGRFNTNNGQTMRDAAVRGLGLAMLPLFIAAEDLAAGRLVEALPQERPLDDLIYAMYSRAATLSPKVKLFVQFLQQALGSPPWGVR	not soluble
MGSDKIHHHHHHMMYPMPSWVYDSVVYQIFPDRFFIGKGKTVEDKKDLYLKRGGVIEKWGVPPRKLPGAQHVKIFYGGDLWGIAEKVDYFEELGINVLYLTPIFLSDTNHKYDTIDYFRVDPQFGGKRAFLHLLRVLHERSMKLILDGVFNHVGSQHPWFKKAKKNDPEYVNRFFLYKDRHRSWFDVGSLPELNVEVEEVKEYILKVVEHYLKLGIDGWRLDCGHDLGPTVNLWINMKVKEFSAEKYLVSEIWTYPAGWDMVDGLMNYNFRNLVLSYVNGETDSIGFHLERAYRETKNIFGCWNMLDSHDTPRLATMVPDRDLRKLAVVLQFTYPGVPLVYYGTEIGLTGGEDPECRATMEWNREKWDVDLFEFYKKMIRLRRTDPGLRFGEFVLLNDSPLAFLRKAPHPLQNTIVVVNPGEEKVLVLSIPDGKIMNTTPLVDVFSGERFHVDGGVVKLPLLARSFRILKPEDLRVGKYRLYKRV	not soluble
EVRALQLEYDQSMEAYQKLVEISPDAIYIQSMEGEILFANPSGIKLLGATDLNELVGLSVMNFIHPDYLNVVENRIGDAENLSGNISEQKAVTLKGEILDIEVVSVAFSYNGKAAEQVIVRNVT	not soluble
EVQLQASGGGSVQAGQSLRLSCATSGATSSSNCMGWFRQAPGKEREGVAVIDTGRGNTAYADSVQGRLTISLDNAKNTLYLQMNSLKPEDTAMYYCAADTSTWYRGYCGTNPNYFSYWGQGTQVTVSSRGRHHHHHH	soluble
MSLAFNVAFRLDAGAEIGLGHLMRCLAIADRLRAAGAECHFLCHDLPAHLLPLLHAHHHHSLTTQDDAGPLPSLQPDWLVFDHYQIDHVVEQELAVHCDQLLVIDDLADRPHYCQLLLDQGPLRTAADYQPLIPADCRLLLGTDYALLRPAYRQLARQQTSQWQGGLICFGGADPAGACLTTLNSLACLPWPRTIQWTLVAGGANPFWPELEQRVAELPELKITLLRQSDQMAQLMNQHDFTIGAAGGMTWERACLGLPTLAVPIVDNQEGHHHHHH	not soluble
MGSDKIHHHHHHMKLIDLHVHSYHSDGVLAPAVLVAMAAERGLASLAIADHDAVDGIDEAVAEGVRLGVDVIPAVELSVELGRFSDLHILGYCIDHHDPAFRDKLAGFRSARDNRGKAILEKINRRLLHSRKAPLSYDEVLSMAGGAVGRPHIGRVLVDNGYARDMEDAFRRYLIPCNVPKRYMPAGEAIAEIRRIGGVSVLAHPPTITDDRRRLRQVVEQLAQLGLDGLEVFNNLCFKDDMLYLERLAEEFGLLMTGGSDFHGFEDDVELGRGRGGLAVAHSLAEKVKELAAQRKHSHA	not soluble
MYQVITMYGDNEPWWFFDDWQEDIVQEKTFDNLTDAETYYVEVWQKLSQNYTYVNTKPNYLTAFWNDGEERWCEECDEDLQQYFGLALLENHHAVTFENKAEFTTISNHFGKTKFCKRKVI	not soluble
MNFNTILEEILIKRSQQKKKTSPLNYKERLFVLTKSVLSYYEGRAEKKYRKGVIDISKIKCVEIVKNDDGVIPCQNKFPFQVVHDANTLYIFAPSPQSRDRWVKKLKEEIKNNNNIMIKYHPKFWADGSYQCCRQTEKLAPGCEKYNLFESSIRKTLPPAPEIKKRRPPPPIPPEEENTEEIVVAMYDFQATEAHDLRLERGQEYIILEKNDLHWWRARDKYGSEGYIPSNYVTGKKSNNLDQYEWYCRNTNRSKAEQLLRTEDKEGGFMVRDSSQPGLYTVSLYTKFGGEGSSGFRHYHIKETATSPKKYYLAEKHAFGSIPEIIEYHKHNAAGLVTRLRYPVSTKGKNAPTTAGFSYDKWEINPSELTFMRELGSGLFGVVRLGKWRAQYKVAIKAIREGAMCEEDFIEEAKVMMKLTHPKLVQLYGVCTQQKPIYIVTEFMERGCLLNFLRQRQGHFSRDMLLSMCQDVCEGMEYLERNSFIHRDLAARNCLVNEAGVVKVSDFGMARYVLDDQYTSSSGAKFPVKWCPPEVFNYSRFSSKSDVWSFGVLMWEIFTEGRMPFEKNTNYEVVTMVTRGHRLHRPKLASKYLYEVMLRCWQERPEGRPSFEDLLRTIDELVECEETFGR	soluble
MGSDKIHHHHHHAPRTPPATDAWSGFRQLFELDPHYAHFANFLITSHPRPVREAIASLRAQLDQHPARCVEWDTQSEWKHEAEVREWAGRYLEVKPRQIALTGSTTEGLGMIYGGLRLNPQQEILTTEHEHYSTRNILAYRSQRDGTQVRKLRLFDDPAKVSDDQVLSTIAAAIKPQTRVLGMTWVHSGSGVKLPVGQIGALVHEANRNRDENDRILYVIDGVHGFGVEDMRFADLQCDYFIAGTHKWMFGPRGTGIICAASTELKHLTPTFATFSENEDFATTMTPGGYHAFEHRWALGKAFELHLQHGKAAIQARIHGLNDYLKERLAQHRAIELVTPRSPNHSAGFTFFRVKGQDVEAIAAHLNSQRIVVDAVDRDVGPVVRTAPGLLNTEAEIDRLVDVLGQRLRA	not soluble
